In patent US20190127444A1 (NEW YORK UNIVERSITY, published 2019):

Tests used:
[1] = biological target: T1, LukAB toxoid variant (LukA E323A), recombinant polyhistidine-tagged (S. aureus, UniProt Q2FFA2 28-351; P21224 30-338); experiment: BLI, FN3 protein on streptavidin pins, LukAB toxoid at 10 ug/mL
T1 sequence 1: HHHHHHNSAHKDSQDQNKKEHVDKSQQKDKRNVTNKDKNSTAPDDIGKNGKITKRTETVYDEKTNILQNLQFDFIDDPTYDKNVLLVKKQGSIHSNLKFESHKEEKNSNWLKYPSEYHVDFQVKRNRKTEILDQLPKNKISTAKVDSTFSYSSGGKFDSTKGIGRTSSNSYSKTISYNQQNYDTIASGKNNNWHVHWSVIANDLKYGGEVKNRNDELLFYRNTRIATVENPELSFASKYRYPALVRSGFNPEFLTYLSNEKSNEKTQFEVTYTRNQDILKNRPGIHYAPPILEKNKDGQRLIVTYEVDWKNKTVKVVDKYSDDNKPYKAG
T1 sequence 2: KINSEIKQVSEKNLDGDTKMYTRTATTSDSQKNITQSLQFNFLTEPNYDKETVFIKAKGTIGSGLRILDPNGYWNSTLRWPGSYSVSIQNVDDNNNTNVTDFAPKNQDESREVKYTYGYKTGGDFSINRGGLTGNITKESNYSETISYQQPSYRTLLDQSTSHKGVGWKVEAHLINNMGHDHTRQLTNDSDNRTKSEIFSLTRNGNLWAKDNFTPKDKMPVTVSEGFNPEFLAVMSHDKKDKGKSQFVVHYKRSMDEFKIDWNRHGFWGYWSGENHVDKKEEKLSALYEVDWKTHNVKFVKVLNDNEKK

[2] = biological target: T2, Human serum albumin conjugated with biotin (Rockland 009-0633) (human, UniProt P02768 25-609); experiment: ELISA, biotinylated HSA on streptavidin plate
T2 construct: also called HSA

[3] = biological target: T1, LukAB toxoid variant (LukA E323A), …; experiment: SPR (Biacore T200), single cycle kinetics, 1:1 model
[4] = biological target: T1, LukAB toxoid variant (LukA E323A), …; experiment: ELISA, biotinylated toxin on streptavidin plate
[5] = biological target: T1, LukAB toxoid variant (LukA E323A), …; experiment: SPR (Biacore T200), construct captured via anti-human Fc, LukAB as analyte

T2 sequence (P02768 25-609 limits assumed): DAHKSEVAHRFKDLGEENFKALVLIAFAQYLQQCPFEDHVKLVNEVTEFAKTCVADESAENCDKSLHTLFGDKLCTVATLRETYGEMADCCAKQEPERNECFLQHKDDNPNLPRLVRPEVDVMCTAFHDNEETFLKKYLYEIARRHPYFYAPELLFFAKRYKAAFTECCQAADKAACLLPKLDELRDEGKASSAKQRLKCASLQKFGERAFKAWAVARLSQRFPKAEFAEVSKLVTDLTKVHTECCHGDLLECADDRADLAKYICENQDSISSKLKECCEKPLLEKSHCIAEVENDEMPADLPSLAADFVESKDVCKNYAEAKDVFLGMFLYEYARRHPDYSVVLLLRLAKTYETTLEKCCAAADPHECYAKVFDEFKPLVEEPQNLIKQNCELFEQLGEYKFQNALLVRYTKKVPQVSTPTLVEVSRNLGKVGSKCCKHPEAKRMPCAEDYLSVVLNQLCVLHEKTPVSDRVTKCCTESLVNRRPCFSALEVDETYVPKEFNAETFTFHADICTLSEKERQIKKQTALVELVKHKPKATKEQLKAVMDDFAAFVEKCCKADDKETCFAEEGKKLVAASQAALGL

B1: Luk17-His-SA (designed binder)
chain: MLPAPKNLVVSRVTEDSARLSWTAPDAAFDSFWITYEEKFYRGEAIVLTVPGSERSYDLTGLKPGTEYKVWIVGVKGGQGSWPLSAIFTTGGHHHHHHGGGLNDIFEAQKIEWHE
[1]
  binding result: binds

B2: Luk970 Hla binding FN3 domain, polyhistidine-tagged version (designed binder)
chain: LPAPKNLVVSRVTEDSARLSWNRGLIPFDSFLIQYQESEKVGEAIVLTVPGSERSYDLTGLKLGTEYTVSIYGVGTYYPWWPLSNPLSAIFTT
[2]
  binding result: no binding (tested: 1 µM)

B3: Luk982 Hla binding FN3 domain, polyhistidine-tagged version (designed binder)
chain: LPAPKNLVVSRVTEDSARLSWTAPDAAFDSFAIGYPEYHDAGEAIHLFVPGSERSYDLTGLKPGTEYVVAIRGVKGGHASEPLHAHFTT
[2]
  binding result: no binding (tested: 1 µM)

B4: Luk969 Hla binding FN3 domain, polyhistidine-tagged version (designed binder)
chain: LPAPKNLVVSRVTEDSARLSWNSEIAEQFFFDSFLIQYQESEKVGEAIVLTVPGSERSYDLTGLKPGTEYTVSIYGVWGHWDWYWKTSNPLSAIFTT
[2]
  binding result: no binding (tested: 1 µM)

B5: mAb 5133 PRASA A6 HC-L4-AB (Table 1 Construct 6) (bispecific antibody)
heavy: EVQLVETGGGLVKPGGSLRLSCSASRFSFRDYYMTWIRQAPGKGPEWVSHISGSGSTIYYADSVRGRFTISRDNAKSSLYLQMDSLQADDTAVYYCARGGRATSYYWVHWGPGTLVTVSSASTKGPSVFPLAPSSKSTSGGTAALGCLVKDYFPEPVTVSWNSGALTSGVHTFPAVLQSSGLYSLSSVVTVPSSSLGTQTYICNVNHKPSNTKVDKKVEPKSCDKTHTCPPCPAPPVAGPDVFLFPPKPKDTLMISRTPEVTCVVVDVSHEDPEVKFNWYVDGVEVHNAKTKPREEQYNSTYRVVSVLTVLHQDWLNGKEYKCKVSNAALPAPIAKTISKAKGQPREPQVYTLPPSRDELTKNQVSLTCLVKGFYPSDIAVEWESNGQPENNYKTTPPVLDSDGSFFLYSKLTVDKSRWQQGNVFSCSVMHEALHNRFTQKSLSLSPGKGGGGSGGGGSGGGGSGGGGSMLPAPKNLVVSRVTEDSARLSWTAPDAAFDSFWITYEEKFYRGEAIVLTVPGSERSYDLTGLKPGTEYKVWIVGVKGGQGSWPLSAIFTT
light: EIVLTQSPATLSLSPGERATLSCRASQSVSGYLGWYQQKPGQAPRLLIYGASSRATGIPDRFSGSGSGTDFTLTISRLEPEDFAVYYCQQYGSSPLTFGGGTKLEIKRTVAAPSVFIFPPSDEQLKSGTASVVCLLNNFYPREAKVQWKVDNALQSGNSQESVTEQDSKDSTYSLSSTLTLSKADYEKHKVYACEVTHQGLSSPVTKSFNRGEC
notes: also called CR5133 PRASA A6 HC-L4-AB
[3]
  Kd: 70 pM

B6: 3×3 linker variant of Construct 11 (bispecific antibody)
heavy: EVQLVETGGGLVKPGGSLRLSCSASRFSFRDYYMTWIRQAPGKGPEWVSHISGSGSTIYYADSVRGRFTISRDNAKSSLYLQMDSLQADDTAVYYCARGGRATSYYWVHWGPGTLVTVSSASTKGPSVFPLAPSSKSTSGGTAALGCLVKDYFPEPVTVSWNSGALTSGVHTFPAVLQSSGLYSLSSVVTVPSSSLGTQTYICNVNHKPSNTKVDKKVEPKSCDKTHTCPPCPAPPVAGPDVFLFPPKPKDTLMISRTPEVTCVVVDVSHEDPEVKFNWYVDGVEVHNAKTKPREEQYNSTYRVVSVLTVLHQDWLNGKEYKCKVSNAALPAPIAKTISKAKGQPREPQVYTLPPSRDELTKNQVSLTCLVKGFYPSDIAVEWESNGQPENNYKTTPPVLDSDGSFFLYSKLTVDKSRWQQGNVFSCSVMHEALHNRFTQKSLSLSPGKGGGGSGGGGSGGGGSMLPAPKNLVVSRVTEDSARLSWTAPDAAFDSFHIEYAEPWVWGEAIVLTVPGSERSYDLTGLKPGTEYVVFIGGVKGGHNSTPLSAIFTTGGGGSGGGGSGGGGSMLPAPKNLVVSRVTEDSARLSWTAPDAAFDSFWITYEEKFYRGEAIVLTVPGSERSYDLTGLKPGTEYKVWIVGVKGGQGSWPLSAIFTT
light: EIVLTQSPATLSLSPGERATLSCRASQSVSGYLGWYQQKPGQAPRLLIYGASSRATGIPDRFSGSGSGTDFTLTISRLEPEDFAVYYCQQYGSSPLTFGGGTKLEIKRTVAAPSVFIFPPSDEQLKSGTASVVCLLNNFYPREAKVQWKVDNALQSGNSQESVTEQDSKDSTYSLSSTLTLSKADYEKHKVYACEVTHQGLSSPVTKSFNRGEC
[4]
  binding result: binds

B7: mAb 5133 PRASA A6 HC-L4-E (Table 1 Construct 15) (bispecific antibody)
heavy: EVQLVETGGGLVKPGGSLRLSCSASRFSFRDYYMTWIRQAPGKGPEWVSHISGSGSTIYYADSVRGRFTISRDNAKSSLYLQMDSLQADDTAVYYCARGGRATSYYWVHWGPGTLVTVSSASTKGPSVFPLAPSSKSTSGGTAALGCLVKDYFPEPVTVSWNSGALTSGVHTFPAVLQSSGLYSLSSVVTVPSSSLGTQTYICNVNHKPSNTKVDKKVEPKSCDKTHTCPPCPAPPVAGPDVFLFPPKPKDTLMISRTPEVTCVVVDVSHEDPEVKFNWYVDGVEVHNAKTKPREEQYNSTYRVVSVLTVLHQDWLNGKEYKCKVSNAALPAPIAKTISKAKGQPREPQVYTLPPSRDELTKNQVSLTCLVKGFYPSDIAVEWESNGQPENNYKTTPPVLDSDGSFFLYSKLTVDKSRWQQGNVFSCSVMHEALHNRFTQKSLSLSPGKGGGGSGGGGSGGGGSGGGGSMLPAPKNLVVSRVTEDSARLSWTAPDAAFDSFHIEYAEPWVWGEAIVLTVPGSERSYDLTGLKPGTEYVVFIGGVKGGHNSTPLSAIFTT
light: EIVLTQSPATLSLSPGERATLSCRASQSVSGYLGWYQQKPGQAPRLLIYGASSRATGIPDRFSGSGSGTDFTLTISRLEPEDFAVYYCQQYGSSPLTFGGGTKLEIKRTVAAPSVFIFPPSDEQLKSGTASVVCLLNNFYPREAKVQWKVDNALQSGNSQESVTEQDSKDSTYSLSSTLTLSKADYEKHKVYACEVTHQGLSSPVTKSFNRGEC
notes: also called CR5133 PRASA A6 HC-L4-E
[5]
  binding result: no binding (tested: 100 nM)

B8: mAb 5133 PRASA A6 (CR5133 PRASA A6; Table 1 Construct 4) (antibody)
heavy: EVQLVETGGGLVKPGGSLRLSCSASRFSFRDYYMTWIRQAPGKGPEWVSHISGSGSTIYYADSVRGRFTISRDNAKSSLYLQMDSLQADDTAVYYCARGGRATSYYWVHWGPGTLVTVSSASTKGPSVFPLAPSSKSTSGGTAALGCLVKDYFPEPVTVSWNSGALTSGVHTFPAVLQSSGLYSLSSVVTVPSSSLGTQTYICNVNHKPSNTKVDKKVEPKSCDKTHTCPPCPAPPVAGPDVFLFPPKPKDTLMISRTPEVTCVVVDVSHEDPEVKFNWYVDGVEVHNAKTKPREEQYNSTYRVVSVLTVLHQDWLNGKEYKCKVSNAALPAPIAKTISKAKGQPREPQVYTLPPSRDELTKNQVSLTCLVKGFYPSDIAVEWESNGQPENNYKTTPPVLDSDGSFFLYSKLTVDKSRWQQGNVFSCSVMHEALHNRFTQKSLSLSPGK
light: EIVLTQSPATLSLSPGERATLSCRASQSVSGYLGWYQQKPGQAPRLLIYGASSRATGIPDRFSGSGSGTDFTLTISRLEPEDFAVYYCQQYGSSPLTFGGGTKLEIKRTVAAPSVFIFPPSDEQLKSGTASVVCLLNNFYPREAKVQWKVDNALQSGNSQESVTEQDSKDSTYSLSSTLTLSKADYEKHKVYACEVTHQGLSSPVTKSFNRGEC
notes: no FN3 domains
[5]
  binding result: no binding (tested: 100 nM)

B9: 3×4 linker variant of Construct 11 (bispecific antibody)
heavy: EVQLVETGGGLVKPGGSLRLSCSASRFSFRDYYMTWIRQAPGKGPEWVSHISGSGSTIYYADSVRGRFTISRDNAKSSLYLQMDSLQADDTAVYYCARGGRATSYYWVHWGPGTLVTVSSASTKGPSVFPLAPSSKSTSGGTAALGCLVKDYFPEPVTVSWNSGALTSGVHTFPAVLQSSGLYSLSSVVTVPSSSLGTQTYICNVNHKPSNTKVDKKVEPKSCDKTHTCPPCPAPPVAGPDVFLFPPKPKDTLMISRTPEVTCVVVDVSHEDPEVKFNWYVDGVEVHNAKTKPREEQYNSTYRVVSVLTVLHQDWLNGKEYKCKVSNAALPAPIAKTISKAKGQPREPQVYTLPPSRDELTKNQVSLTCLVKGFYPSDIAVEWESNGQPENNYKTTPPVLDSDGSFFLYSKLTVDKSRWQQGNVFSCSVMHEALHNRFTQKSLSLSPGKGGGGSGGGGSGGGGSMLPAPKNLVVSRVTEDSARLSWTAPDAAFDSFHIEYAEPWVWGEAIVLTVPGSERSYDLTGLKPGTEYVVFIGGVKGGHNSTPLSAIFTTGGGGSGGGGSGGGGSGGGGSMLPAPKNLVVSRVTEDSARLSWTAPDAAFDSFWITYEEKFYRGEAIVLTVPGSERSYDLTGLKPGTEYKVWIVGVKGGQGSWPLSAIFTT
light: EIVLTQSPATLSLSPGERATLSCRASQSVSGYLGWYQQKPGQAPRLLIYGASSRATGIPDRFSGSGSGTDFTLTISRLEPEDFAVYYCQQYGSSPLTFGGGTKLEIKRTVAAPSVFIFPPSDEQLKSGTASVVCLLNNFYPREAKVQWKVDNALQSGNSQESVTEQDSKDSTYSLSSTLTLSKADYEKHKVYACEVTHQGLSSPVTKSFNRGEC
[4]
  binding result: binds

B10: Luk1012 Hla binding FN3 domain, polyhistidine-tagged version (designed binder)
chain: LPAPKNLVVSRVTEDSARLSWTAPDAAFDSFFILYVEYSVNGEAIELSVPGSERSYDLTGLKPGTEYDVIIGGVKGGNHSKPLVAFFTT
[2]
  binding result: no binding (tested: 1 µM)

B11: Luk967 Hla binding FN3 domain, polyhistidine-tagged version (designed binder)
chain: LPAPKNLVVSRVTEDSARLSWEANAWDDVNFDSFLIQYQESEKVGEAIVLTVPGSERSYDLTGLKPGTEYTVSIYGVWNQTHYRWPSNPLSAIFTT
[2]
  binding result: no binding (tested: 1 µM)
